According to patent US20070244048A1 (published 2007):
No end group written: not given here. *: point of attachment. (PEG)2 40 kDa = branched PEG of 40 kDa linked via the Cys side-chain thiol (code C2 = Cys(PEG)2 40 kDa); Cholesteroyl = cholesterol linked to a cysteine residue via the side-chain thiol; Palmitoyl = CCCCCCCCCCCCCCCC(=O)*

T1: mouse NMUR1-CTG (mouse, UniProt O55040 1-428)
T1 sequence (looked up): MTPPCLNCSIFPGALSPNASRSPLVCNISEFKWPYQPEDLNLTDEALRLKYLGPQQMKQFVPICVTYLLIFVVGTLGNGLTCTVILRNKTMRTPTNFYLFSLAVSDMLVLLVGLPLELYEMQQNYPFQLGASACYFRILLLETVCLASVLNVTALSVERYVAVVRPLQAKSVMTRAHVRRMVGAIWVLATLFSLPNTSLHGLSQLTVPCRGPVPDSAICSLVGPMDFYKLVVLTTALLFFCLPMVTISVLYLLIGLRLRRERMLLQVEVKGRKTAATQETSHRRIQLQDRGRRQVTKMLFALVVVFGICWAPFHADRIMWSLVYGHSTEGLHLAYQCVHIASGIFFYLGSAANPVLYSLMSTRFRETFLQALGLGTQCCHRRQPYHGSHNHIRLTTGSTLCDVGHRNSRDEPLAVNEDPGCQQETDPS

T2: mouse NMUR1-ATG (mouse, UniProt O55040 1-428)
T2 sequence (looked up): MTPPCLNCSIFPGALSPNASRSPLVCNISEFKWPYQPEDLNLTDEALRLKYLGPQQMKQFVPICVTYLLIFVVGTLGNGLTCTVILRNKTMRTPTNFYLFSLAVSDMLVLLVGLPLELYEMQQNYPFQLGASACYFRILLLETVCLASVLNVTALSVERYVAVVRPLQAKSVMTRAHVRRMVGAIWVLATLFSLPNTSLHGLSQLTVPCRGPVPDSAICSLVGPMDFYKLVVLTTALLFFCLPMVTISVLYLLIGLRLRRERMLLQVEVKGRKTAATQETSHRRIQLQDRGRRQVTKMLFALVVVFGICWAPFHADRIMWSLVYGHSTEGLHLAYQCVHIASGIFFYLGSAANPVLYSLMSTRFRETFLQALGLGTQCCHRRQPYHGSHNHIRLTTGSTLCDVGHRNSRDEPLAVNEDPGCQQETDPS

T3: human NMUR1 (human, UniProt Q9HB89 1-426)
T3 sequence (looked up): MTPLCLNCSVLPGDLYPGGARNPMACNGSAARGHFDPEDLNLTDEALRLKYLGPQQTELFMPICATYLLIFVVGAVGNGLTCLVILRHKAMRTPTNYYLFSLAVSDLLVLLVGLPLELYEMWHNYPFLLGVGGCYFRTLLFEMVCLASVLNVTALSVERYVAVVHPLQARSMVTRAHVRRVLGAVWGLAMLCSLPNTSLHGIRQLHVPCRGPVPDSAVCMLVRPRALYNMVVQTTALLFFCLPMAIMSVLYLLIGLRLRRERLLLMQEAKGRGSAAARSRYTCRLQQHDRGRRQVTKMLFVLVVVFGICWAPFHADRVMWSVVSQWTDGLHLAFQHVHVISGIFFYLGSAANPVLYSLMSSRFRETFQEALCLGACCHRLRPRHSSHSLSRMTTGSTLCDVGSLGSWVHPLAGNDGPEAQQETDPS

T4: rat NMUR1-ATG (rat, UniProt Q9JJI5 1-425)
T4 sequence (looked up): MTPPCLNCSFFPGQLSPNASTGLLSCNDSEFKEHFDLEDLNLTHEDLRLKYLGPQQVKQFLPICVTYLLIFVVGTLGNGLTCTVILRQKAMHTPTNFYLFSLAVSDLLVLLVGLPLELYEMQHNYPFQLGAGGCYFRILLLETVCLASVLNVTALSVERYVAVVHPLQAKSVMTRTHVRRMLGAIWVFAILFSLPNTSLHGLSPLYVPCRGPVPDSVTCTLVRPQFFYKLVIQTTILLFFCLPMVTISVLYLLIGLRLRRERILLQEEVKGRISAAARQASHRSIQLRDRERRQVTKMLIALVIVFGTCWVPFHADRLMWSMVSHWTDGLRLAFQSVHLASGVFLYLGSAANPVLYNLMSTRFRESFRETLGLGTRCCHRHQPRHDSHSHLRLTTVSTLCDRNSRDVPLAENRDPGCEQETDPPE

T5: rat NMUR1-TTG (rat, UniProt Q9JJI5 1-425)
T5 sequence (looked up): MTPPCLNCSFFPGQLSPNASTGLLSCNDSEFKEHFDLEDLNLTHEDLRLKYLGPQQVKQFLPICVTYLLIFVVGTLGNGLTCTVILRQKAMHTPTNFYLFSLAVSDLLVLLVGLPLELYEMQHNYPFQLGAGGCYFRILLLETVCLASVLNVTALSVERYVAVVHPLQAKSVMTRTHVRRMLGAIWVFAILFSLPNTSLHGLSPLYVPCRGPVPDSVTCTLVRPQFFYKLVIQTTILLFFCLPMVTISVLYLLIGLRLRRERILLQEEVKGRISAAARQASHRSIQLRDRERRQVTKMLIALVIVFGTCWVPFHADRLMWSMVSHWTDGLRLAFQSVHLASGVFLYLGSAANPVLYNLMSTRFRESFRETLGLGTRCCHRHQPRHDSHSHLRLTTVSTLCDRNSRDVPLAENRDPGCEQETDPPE


Experiments:
Experiment in all cases: cell-based or functional assay
mouse NMUR1-CTG = biological target: T1, mouse NMUR1-CTG
mouse NMUR1-ATG = biological target: T2, mouse NMUR1-ATG
mouse NMUR2 = mouse NMUR2 (mouse, UniProt Q8BZ39 1-395)
Chain of mouse NMUR2 (Q8BZ39 whole entry): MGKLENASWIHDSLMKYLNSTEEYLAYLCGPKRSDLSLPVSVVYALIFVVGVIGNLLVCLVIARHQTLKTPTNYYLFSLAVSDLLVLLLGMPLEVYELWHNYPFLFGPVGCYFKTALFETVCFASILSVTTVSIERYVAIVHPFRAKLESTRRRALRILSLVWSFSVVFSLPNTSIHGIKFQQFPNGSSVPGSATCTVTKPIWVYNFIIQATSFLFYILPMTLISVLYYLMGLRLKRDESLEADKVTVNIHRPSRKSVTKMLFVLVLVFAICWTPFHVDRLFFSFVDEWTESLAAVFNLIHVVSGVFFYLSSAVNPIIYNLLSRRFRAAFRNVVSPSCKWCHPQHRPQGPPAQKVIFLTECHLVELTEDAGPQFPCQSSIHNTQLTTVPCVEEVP

human NMUR1 = biological target: T3, human NMUR1
human NMUR2 = human NMUR2 (human, UniProt Q9GZQ4 1-415)
Chain of human NMUR2 (Q9GZQ4 whole entry): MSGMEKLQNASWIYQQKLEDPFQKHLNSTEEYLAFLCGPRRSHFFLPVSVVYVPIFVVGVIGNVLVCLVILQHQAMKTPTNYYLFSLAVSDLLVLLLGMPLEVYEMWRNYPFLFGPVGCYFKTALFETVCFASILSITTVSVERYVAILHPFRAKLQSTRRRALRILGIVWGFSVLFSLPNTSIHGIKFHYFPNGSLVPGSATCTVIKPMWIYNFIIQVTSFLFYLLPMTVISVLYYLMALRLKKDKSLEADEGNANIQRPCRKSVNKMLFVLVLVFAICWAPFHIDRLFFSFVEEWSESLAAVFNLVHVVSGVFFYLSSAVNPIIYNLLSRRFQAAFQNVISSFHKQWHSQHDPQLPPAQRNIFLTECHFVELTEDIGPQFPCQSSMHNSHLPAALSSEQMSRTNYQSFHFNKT

rat NMUR2 = rat NMUR2 (rat, UniProt Q9ESQ4 1-395)
Chain of rat NMUR2 (Q9ESQ4 whole entry): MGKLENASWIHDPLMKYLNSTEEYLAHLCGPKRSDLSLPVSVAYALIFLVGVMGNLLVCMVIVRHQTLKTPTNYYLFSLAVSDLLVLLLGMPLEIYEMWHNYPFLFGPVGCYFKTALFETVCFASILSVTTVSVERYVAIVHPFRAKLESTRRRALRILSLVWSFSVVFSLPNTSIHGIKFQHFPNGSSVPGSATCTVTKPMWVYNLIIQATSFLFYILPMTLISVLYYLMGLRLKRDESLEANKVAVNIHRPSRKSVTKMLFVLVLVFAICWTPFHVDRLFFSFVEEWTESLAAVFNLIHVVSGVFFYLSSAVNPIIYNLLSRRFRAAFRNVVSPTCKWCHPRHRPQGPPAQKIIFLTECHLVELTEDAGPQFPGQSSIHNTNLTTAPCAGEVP

rat NMUR1-ATG = biological target: T4, rat NMUR1-ATG
rat NMUR1-TTG = biological target: T5, rat NMUR1-TTG

| Binder | % Activity (FLIPR) (mouse NMUR1-CTG) [%] | EC50 (FLIPR) (mouse NMUR1-CTG) [nM] | % Activity (FLIPR) (mouse NMUR1-ATG) [%] | EC50 (FLIPR) (mouse NMUR1-ATG) [nM] | % Activity (FLIPR) (mouse NMUR2) [%] | EC50 (FLIPR) (mouse NMUR2) [nM] | % Activity (FLIPR) (human NMUR1) [%] | EC50 (FLIPR) (human NMUR1) [nM] | % Activity (FLIPR) (human NMUR2) [%] | EC50 (FLIPR) (human NMUR2) [nM] | % Activity (FLIPR) (rat NMUR2) [%] | EC50 (FLIPR) (rat NMUR2) [nM] | % Activity (FLIPR) (rat NMUR1-ATG) [%] | EC50 (FLIPR) (rat NMUR1-ATG) [nM] | % Activity (FLIPR) (rat NMUR1-TTG) [%] | EC50 (FLIPR) (rat NMUR1-TTG) [nM] |
| --- | --- | --- | --- | --- | --- | --- | --- | --- | --- | --- | --- | --- | --- | --- | --- | --- |
| Ac-C((PEG)2 40 kDa)FRVDEEFQSPFASQSRGYFLFRPRN-NH2 [NMU9] | 71.7 | 1000 | 95 | 45.7 | 100 | 19 | 94.4 | 50.6 | 94.3 | 91.1 | 100 | 4.5 | 100 | 9.7 | – | – |
| Ac-C(Cholesteroyl)GYFLFRPRN-NH2 [NMU11] | 65 | 600 | 81.3 | 1000 | 70.5 | 1000 | 20.6 | 1000 | 37.3 | 1000 | 33.2 | 1000 | 50.9 | 316 | – | – |
| FRVDEEFQSPFASQSRPYFLFRPRN-NH2 [NMU4] | 100 | 11.6 | 100 | 3.6 | 100 | 1.2 | 97 | 7.2 | 100 | 2.6 | 100 | 2.9 | 100 | 3.8 | – | – |
| GYFLFRPRN-NH2 [NMU3] | 100 | 4.7 | 100 | 2.9 | 100 | 1 | 98.9 | 5.6 | 100 | 1.9 | 100 | 1.8 | 100 | 0.7 | – | – |
| Palmitoyl-C((PEG)2 40 kDa)FRVDEEFQSPFASQSRGYFLFRPRN-NH2 [NMU25] | 100 | 60.3 | 100 | 10.2 | 100 | 18.8 | 83 | 168 | 98.8 | 44.1 | 96.4 | 37.8 | 99.6 | 20.1 | 93.5 | 81 |
| Ac-C((PEG)2 40 kDa)GYFLFRPRN-NH2 [NMU7] | – | – | – | – | – | – | 91.4 | 79.6 | 91.8 | 36.1 | – | – | – | – | – | – |
| Ac-FRVDEEFQSPFASQSRGYFLFRPRN-NH2 [NMU2] | 100 | 8.3 | 100 | 2.1 | 100 | 1.2 | 99 | 5.5 | 97.4 | 2.6 | 100 | 2.2 | 89.2 | 3.3 | – | – |
